Test results reported in publication PMC11127761.

Columns and labels:
Assay in all cases: electrochemical aptasensor (IPA 500 Hz, flow cell)
Conditions in all cases: 1-1000 pg/mL; NPY signal about 10x higher; 5' thiol C6 (disulfide reduced), 3' amino linker; aCSF pH 7.4 (composition by citation); SWV -0.4 to 0.0 V, 30 Hz; IPA 500 Hz in flow cell; assay temperature not stated
[1] = molecular target: T1, Pancreatic polypeptide (PP) (UniProt P01298)
T1 sequence: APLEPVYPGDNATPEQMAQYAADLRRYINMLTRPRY

Peptide YY (PYY) = Peptide YY (PYY) (UniProt P10082)
Sequence of Peptide YY (PYY) (P10082 29-64): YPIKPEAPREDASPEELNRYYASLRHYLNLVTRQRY

Somatostatin (SOM) = molecular target: T2, Somatostatin (SOM) (UniProt P61278)
T2 sequence: AGCKNFFWKTFTSC

Measured: binding signal (fraction of NPY signal)

AGCAGCACAGAGGTCAGATGCAAACCACAGCCTGAGTGGTTAGCGTATGTCATTTACGGACCTATGCGTGCTACCGTGAA [Aptamer 4.31]
0.1: all assays above
